For assay [1], the target named is T1, human uPAR on the surface of MDA-MB-231 cells (Homo sapiens (endogenous, MDA-MB-231), UniProt Q03405). Kind of assay: cell-based or functional assay.
Assay [2] concerns the target T1, human uPAR on the surface of MDA-MB-231 …. Kind of assay: flow cytometry on cells.
For assay [3], the target named is recombinant human soluble uPAR (suPAR) (human, UniProt Q03405, biotin (in the BLI experiments)). Kind of assay: ELISA.
In the next assay the target is cynomolgus monkey uPAR (Macaca fascicularis, UniProt Q9GK78). Kind of assay: ELISA.
Chain of cynomolgus monkey uPAR (Q9GK78 23-305): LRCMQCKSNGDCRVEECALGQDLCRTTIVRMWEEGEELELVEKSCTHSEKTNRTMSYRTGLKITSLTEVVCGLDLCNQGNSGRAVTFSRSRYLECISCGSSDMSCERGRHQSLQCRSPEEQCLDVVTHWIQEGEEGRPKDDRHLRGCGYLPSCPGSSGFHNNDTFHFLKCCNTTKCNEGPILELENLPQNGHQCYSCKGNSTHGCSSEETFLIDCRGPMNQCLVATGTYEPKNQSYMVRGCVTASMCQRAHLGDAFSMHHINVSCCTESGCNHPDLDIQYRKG

Chain of recombinant human soluble uPAR (suPAR) (Q03405 23-305): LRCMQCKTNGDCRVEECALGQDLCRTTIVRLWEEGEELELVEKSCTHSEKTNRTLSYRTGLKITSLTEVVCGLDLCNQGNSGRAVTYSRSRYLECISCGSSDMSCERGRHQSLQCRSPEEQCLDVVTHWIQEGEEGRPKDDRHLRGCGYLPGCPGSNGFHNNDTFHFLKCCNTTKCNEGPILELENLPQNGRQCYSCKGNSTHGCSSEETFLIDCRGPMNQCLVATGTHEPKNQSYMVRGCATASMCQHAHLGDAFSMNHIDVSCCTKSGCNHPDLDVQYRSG
T1 sequence (Q03405 23-305): as above

B1: anti-uPAR recombinant antibody 3159 (mouse/human chimeric IgG1) (antibody, V domains shown)
VH: QVTLKESGPGILQSSLTLSLTCSLSGFSLSTSGMGVSWIRQPSGKGLEWLAHIYWDDDKRYNPSLKTRLTISKDASRDQVFLKIISVDTADTGTYYCGRRVRNYFSGTSYWYFDVWGTGTTVTVSS
VL: DVLMTQTPLSLSVSLGDQASISCRSSQNILHRTGNTYLEWYLQKPGQSPKLLIYKVSNRFSGVPDRFSGSGSGTDFTLKISRLEAEDLGVYYCFQGSYVPFTFGSGTKLEMK
On to B1, for which, in assay [1], the “ADCC against MDA-MB-231 cells with NK-92 MI CD16a effector cells, EC50” value (“ADCC … with NK-92 MI CD16a effector cells, EC50” for short) was determined as 0.89 nM; the “ADCC against MDA-MB-231 cells with NK-92 MI CD16a effector cells, Max%” value (from here on “ADCC … with NK-92 MI CD16a effector cells, Max%”) stood at 28.2%; the “ADCC against MDA-MB-231 cells with human PBMCs, EC50” value (from here on “ADCC … with human PBMCs, EC50”) was found to be 0.11 nM; the “ADCC against MDA-MB-231 cells with human PBMCs, Max%” value (“ADCC … with human PBMCs, Max%” below) is 47.4%. In addition, the response in assay [2] was half-maximal at 0.92 nM (EC50). Further, the 50% effective concentration (EC50) in assay [3] is 0.53 nM. Besides, the concentration for a half-maximal effect (EC50) in the assay with cynomolgus monkey uPAR came to 0.27 nM.

B2: anti-uPAR recombinant antibody 8163 (mouse/human chimeric IgG1) (antibody, V domains shown)
VH: EVQLVESGGGLVQPGESLTLSCDSNEFDFPSHDMSWVRKTPEKRLELVAAIDSDGGLTYYSNSRERRFIISRDNTKNTLYLQMRSLRSEDTALYYCARRRASYWYFDVWGTGTTVTVSS
VL: DILLTQSPAILPVSPGERVSFSCRASQNIGTSIHWYQQRTNGSPRLLIKYASESISGIPSRFSGSGSGTDFTLSINGVESEDIGDYYCQQSNSWPTFGGGTKLEIK
Regarding B2, in assay [1], the “ADCC … with NK-92 MI CD16a effector cells, EC50” value is 1.14 nM; the “ADCC … with NK-92 MI CD16a effector cells, Max%” value is 18.8%; the “ADCC … with human PBMCs, EC50” value was 0.09 nM; the “ADCC … with human PBMCs, Max%” value came to 57.5%. In assay [2], this molecule returned a half-maximal effective concentration (EC50) of 0.69 nM. Besides, the EC50 in assay [3] turned out to be 0.41 nM. In the assay with cynomolgus monkey uPAR, this molecule displayed an EC50 of 0.15 nM.

B3: anti-uPAR recombinant antibody 11857 (mouse/human chimeric IgG1) (antibody, V domains shown)
VH: EVQLRQSGPELVKPGASVKISCKASGYTFTDYYMNWVKQSHEKSLEWIGNINPNNGGTDYNQKFKGKATLTVDKSSSTAYMELRSLTSEDSAVYYCARSYGSRFPYWGLGTLVTVSA
VL: DIQMTQTTSSLSASLGDRVTISCRASQDITNYLSWYQQKPDGTVKLLIFYTAVLQSGFPLRFSGSGSGADYSLTISNLEQEDFATYFCQQGHTLPWTFGGGTKLEIK
Consider B3, for which, in assay [1], the “ADCC … with NK-92 MI CD16a effector cells, EC50” value worked out at 5.59 nM; the “ADCC … with NK-92 MI CD16a effector cells, Max%” value is 27.2%; the “ADCC … with human PBMCs, EC50” value is 0.35 nM; the “ADCC … with human PBMCs, Max%” value was 52%. Moreover, the EC50 in assay [2] is 2.07 nM. Also, the EC50 in assay [3] stood at 0.52 nM. In addition, the EC50 in the assay with cynomolgus monkey uPAR was 0.18 nM.

(Values after article PMC9988344 (mAbs, 2023).)
